In paper PMC5038948, “The Role of Neutrophil Proteins on the Amyloid Beta-RAGE Axis” (PLoS ONE, 2016):
Where two headings read alike, the source gives them in different places.

How the values were obtained:
Aβ1–42 binding to RAGE = target: T1, Aβ1–42 binding to RAGE (Homo sapiens, UniProt Q15109); assay: ELISA: competitive inhibition of Aβ1–42 binding to RAGE by neutrophil proteins added simultaneously
T1 construct: purchased R&D Systems Inc. (RAGE Fc chimera); Bachem (Aβ1–42)
Procedure: (§1) The plates were washed three times with PBS containing 0.05% tween (PBST), and then blocked in PBST containing 3% bovine serum albumin (BSA). Indicated proteins were added to the plate in 50 μL PBST containing 0.1% BSA and incubated at 37°C for 70 mins. Wells were washed four times with PBST, and then incubated with 50 μL of goat anti-RAGE primary antibody (0.5 μg/ml) or mouse anti-APP/Aβ antibody (0.5 μg/ml-1 μg/ml) for 1 h. After washing the wells four times with PBST, 50 μL of rabbit anti-goat at 0.16 μg/ml or donkey anti-mouse at 0.04–0.08 μg/ml secondary antibodies were added for 1 h at room temperature.
(§2) All statistics were performed using Graph Pad Prism 6 (GraphPad Software, La Jolla, CA). Data are represented as mean± SEM of results. […] Two-way analysis of variances (ANOVAs) were performed with Dunnett’s multiple comparison tests. […] Kruskal-Wallis tests with Dunn’s multiple comparison tests were used to analyze binding by Far-Western dot blotting (see figure legends 3 and 6 for details on multiple comparison tests). […] To obtain dissociation constants (Kd), half-maximal inhibitory concentrations (IC50), and maximum absorbance values, BSA was subtracted as background and values were fitted to a curve of nonlinear regression.

Aβ1–42 [1] = target: T2, Aβ1–42 (Homo sapiens, UniProt P05067); assay: ELISA: binding of Aβ1–42 to coated neutrophil proteins; settings: for Log binding (Aβ1–42): 0.5 μg/well coated protein, with protease inhibitor cocktail, log OD 492 nm, mean ± SEM, n = 3
T2 construct: Amyloid beta 1–42 (Aβ1–42), a known RAGE ligand; purchased Bachem (Torrance, CA)
Procedure: as §1, §2

Aβ1–42 [2] = target: T2, Aβ1–42; assay: Far-Western dot blot: binding of Aβ1–42 to spotted neutrophil proteins; settings: Aβ1–42 […] (56 nM) with protease inhibitor cocktail; 1 μg spotted protein
Procedure: After spotting, membranes were rinsed with ultrapure water, and Ponceau S (Sigma Aldrich) was used to stain for spotted proteins. Ponceau S was rinsed off with ultrapure water, and membrane blots were blocked for 2 h at room temperature in PBST containing 3% BSA. […] Blots were washed three times with PBST for 10 min, and then incubated with either rabbit anti-RAGE primary antibody (0.8μg/ml) or mouse anti-APP/Aβ (0.25μg/ml) for 2 h at room temperature. Blots were washed three times with PBST for 10 min, and then incubated with donkey anti-rabbit or donkey anti-mouse secondary antibodies at 0.04μg/ml for 45 min at room temperature. Blots were washed three times with PBST. Enhanced chemiluminescent or SuperSignal West femto maximum sensitivity substrates (Pierce) were used to develop blots. Mean dot densities were quantified and normalized to ponceau S dot densities using Image J software (National Institutes of Health (NIH), Bethesda, MD).
Blots were incubated with rocking overnight at 4°C.
All statistics were performed using Graph Pad Prism 6 (GraphPad Software, La Jolla, CA). Data are represented as mean± SEM of results. […] To obtain dissociation constants (Kd), half-maximal inhibitory concentrations (IC50), and maximum absorbance values, BSA was subtracted as background and values were fitted to a curve of nonlinear regression.

RAGE Fc chimera [3] = target: T3, RAGE Fc chimera (Homo sapiens, UniProt Q15109); assay: ELISA: binding of RAGE to coated neutrophil proteins; parameters: purchased R&D Systems Inc. (Minneapolis, MN); settings: for Log binding (RAGE): wells coated 0.5 μg/well protein, log-transformed OD 492 nm, mean ± SEM
T3 sequence (Q15109 with tags, fused parts or gaps limits assumed): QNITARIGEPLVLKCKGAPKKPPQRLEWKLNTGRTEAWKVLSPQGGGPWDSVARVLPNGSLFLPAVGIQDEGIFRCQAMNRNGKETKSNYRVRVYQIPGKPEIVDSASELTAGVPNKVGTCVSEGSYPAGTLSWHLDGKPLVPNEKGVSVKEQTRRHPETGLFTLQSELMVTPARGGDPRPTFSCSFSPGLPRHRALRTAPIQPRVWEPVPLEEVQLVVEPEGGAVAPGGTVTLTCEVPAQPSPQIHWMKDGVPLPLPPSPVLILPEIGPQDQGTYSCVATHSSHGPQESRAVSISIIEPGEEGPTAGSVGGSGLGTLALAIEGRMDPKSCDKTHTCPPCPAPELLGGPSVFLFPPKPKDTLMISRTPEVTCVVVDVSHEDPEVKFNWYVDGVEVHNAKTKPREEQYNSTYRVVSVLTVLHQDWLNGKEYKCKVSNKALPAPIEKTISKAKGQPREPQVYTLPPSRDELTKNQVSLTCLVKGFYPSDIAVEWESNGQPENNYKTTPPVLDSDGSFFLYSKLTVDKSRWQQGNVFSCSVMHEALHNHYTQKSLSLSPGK
Procedure: as §1
Goat anti-RAGE primary antibody at 0.5 μg/ml was used to detect bound RAGE.
as §2

RAGE Fc chimera [4] = target: T3, RAGE Fc chimera; assay: Far-Western dot blot: binding of RAGE to spotted proteins ± GM-0111; parameters: purchased R&D Systems Inc. (Minneapolis, MN); settings: 1 μg spotted protein (0.5 μg Aβ1–42)
Procedure: as §2

RAGE Fc chimera [5] = target: T3, RAGE Fc chimera; assay: ELISA: Aβ1–42 binding to RAGE after pre-incubation of Aβ1–42 with neutrophil proteins; parameters: purchased R&D Systems Inc. (RAGE Fc chimera); Bachem (Aβ1–42); settings: for Kd: read-out: KD value for Aβ1–42 binding to RAGE
Procedure: as §1
In this set of experiments, the maxisorp plates were coated with RAGE Fc chimera (0.5 μg/well, 83.3 nM) overnight at 4°C.
as §2

T1 sequence (Q15109 with tags, fused parts or gaps limits assumed): as above

B1: cationic antimicrobial protein of 37kDa (protein)
chain: IVGGRKARPRQFPFLASIQNQGRHFCGGALIHARFVMTAASCFQSQNPGVSTVVLGAYDLRRRERQSRQTFSISSMSENGYDPQQNLNDLMLLQLDREANLTSSVTILPLPLQNATVEAGTRCQVAGWGSQRSGGRLSRFPRFVNVTVTPEDQCRPNNVCTGVLTRRGGICNGDGGTPLVCEGLAHGVASFSLGPCGRGPDFFTRVALFRDWIDGVLNNPGPGPA
notes: neutrophil protein purified from human neutrophils (Athens Research & Technology)
Aβ1–42 binding to RAGE; no protease inhibitors, highest dose of protein
  maximal inhibition of Aβ1–42 binding to RAGE in the absence of protease inhibitors: complete
Aβ1–42 binding to RAGE; with protease inhibitor cocktail, Aβ1–42 11 nM
  inhibition of Aβ1–42 binding to RAGE in the presence of protease inhibitors: only partial
Aβ1–42 [1]; Aβ1–42 0 nM (background)
  Log binding (Aβ1–42): • -0.907±0.139 • p = 0.005
Aβ1–42 [1]; Aβ1–42 3.47 nM
  Log binding (Aβ1–42): • -0.556±0.047 • p<0.0001
Aβ1–42 [1]; Aβ1–42 13.89 nM
  Log binding (Aβ1–42): • -0.138±0.047 • p<0.0001
Aβ1–42 [1]; Aβ1–42 27.78 nM
  Log binding (Aβ1–42): • 0.137±0.043 • p<0.0001
Aβ1–42 [1]; Aβ1–42 55.56 nM
  Log binding (Aβ1–42): • 0.304±0.039 • p<0.0001
Aβ1–42 [1]; ELISA with protease inhibitors, BSA subtracted, nonlinear regression fit
  maximum absorbance value for Aβ1–42 binding: 2.86
Aβ1–42 [2]
  binding of Aβ1–42 (far-Western dot blot): strong binding
RAGE Fc chimera [3]; ELISA, BSA subtracted as background, nonlinear regression fit
  maximum absorbance value for RAGE binding: 2.49
RAGE Fc chimera [3]; RAGE 0 nM (background)
  Log binding (RAGE): -0.623
RAGE Fc chimera [3]; RAGE 0.83 nM
  Log binding (RAGE): • 0.112±0.041 • p<0.0001
RAGE Fc chimera [3]; RAGE 1.67 nM
  Log binding (RAGE): • 0.228±0.043 • p<0.0001
RAGE Fc chimera [3]; RAGE 3.33 nM
  Log binding (RAGE): • 0.325±0.064 • p<0.0001
RAGE Fc chimera [4]
  binding of RAGE (far-Western dot blot): strong binding
RAGE Fc chimera [5]; Aβ1–42 pre-incubated with CAP37 500 ng/ml
  maximum absorbance (MA) for Aβ1–42 binding to RAGE: 3.05
RAGE Fc chimera [5]; Aβ1–42 pre-incubated with CAP37 1 μg/ml
  maximum absorbance (MA) for Aβ1–42 binding to RAGE: 3.70
RAGE Fc chimera [5]; Aβ1–42 pre-incubated with CAP37 2 μg/ml
  maximum absorbance value for Aβ1–42 binding to RAGE: 3.27 OD 492 nm
RAGE Fc chimera [5]; Aβ1–42 pre-incubated overnight 4°C with CAP37 500 ng/ml (21 nM)
  Kd: 13.8 nM
RAGE Fc chimera [5]; Aβ1–42 pre-incubated overnight 4°C with CAP37 1 μg/ml (42 nM)
  Kd: 59.3 nM
RAGE Fc chimera [5]; Aβ1–42 pre-incubated overnight 4°C with CAP37 2 μg/ml (83 nM)
  Kd: 149 nM
